Assay results taken from patent publication US20200199241A1 (Chugai, published 2020).

target: T1, soluble human FcRn complexed with β2-microglobulin (human, UniProt P61769 21-119, limits assumed); test: Biacore SPR, pH 7.0;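 also: test antibodies captured on a Protein L chip with human FcRn flowed over as analyte, KD obtained as the ratio of dissociation to association rate constants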
T1 construct: also called hFcRn

Row | Kd [nM] | Binder
1 | 30 | IgG1-F1013 (antibody, EU numbering; copies: 2 + 2) heavy: QVQLQESGPGLVKPSETLSLTCAVSGHSISHDHAWSWVRQPPGEGLEWIGFISYSGITNYNPSLQGRVTISRDNSKNTLYLQMNSLRAEDTAVYYCARSLARTTAMDYWGEGTLVTVSSASTKGPSVFPLAPSSKSTSGGTAALGCLVKDYFPEPVTVSWNSGALTSGVHTFPAVLQSSGLYSLSSVVTVPSSSLGTQTYICNVNHKPSNTKVDKKVEPKSCDKTHTCPPCPAPELLGGPSVFLFPPKPKDVLYISRTPEVTCVVVDVSHEDPEVKFNWYVDGVEVHNAKTKPREEQYNSTYRVVSVLQPLHADWLNGKEYKCKVSNKALPAPIEKTISKAKGQPREPQVYTLPPSRDELTKNQVSLTCLVKGFYPSDIAVEWESNGQPENNYKTTPPVLDSDGSFFLYSKLTVDKSRWQQGNVFSCSVMHEALHYHYTQKSLSLSP light: not shown
2 | 85 | IgG1-F1020 (antibody, EU numbering; copies: 2 + 2) heavy: QVQLQESGPGLVKPSETLSLTCAVSGHSISHDHAWSWVRQPPGEGLEWIGFISYSGITNYNPSLQGRVTISRDNSKNTLYLQMNSLRAEDTAVYYCARSLARTTAMDYWGEGTLVTVSSASTKGPSVFPLAPSSKSTSGGTAALGCLVKDYFPEPVTVSWNSGALTSGVHTFPAVLQSSGLYSLSSVVTVPSSSLGTQTYICNVNHKPSNTKVDKKVEPKSCDKTHTCPPCPAPELLGGDSVFLFPPKPKDVLYISRTPEVTCVVVDVSHEDPEVKFNWYVDGVEVHNAKTKPREEQYNSTYRVVSVLQVLHADWLNGKEYKCKVSGKALPAPIEKTISKAKGQPREPQVYTLPPSRDELTKNQVSLTCLVKGFYPSDIAVEWESNGQPENNYKTTPPVLDSDGSFFLYSKLTVDKSRWQQGNVFSCSVMHEALHYHYTQKSLSLSP light: not shown
3 | 22 | IgG1-F1015 (antibody, EU numbering; copies: 2 + 2) heavy: QVQLQESGPGLVKPSETLSLTCAVSGHSISHDHAWSWVRQPPGEGLEWIGFISYSGITNYNPSLQGRVTISRDNSKNTLYLQMNSLRAEDTAVYYCARSLARTTAMDYWGEGTLVTVSSASTKGPSVFPLAPSSKSTSGGTAALGCLVKDYFPEPVTVSWNSGALTSGVHTFPAVLQSSGLYSLSSVVTVPSSSLGTQTYICNVNHKPSNTKVDKKVEPKSCDKTHTCPPCPAPELRGGPKVFLFPPKPKDTLYISRTPEVTCVVVDVSHEDPEVKFNWYVDGVEVHNAKTKPREEQYNSTYRVVSVLQPLHADWLNGKEYKCKVSNKALPAPIEKTISKAKGQPREPQVYTLPPSRDELTKNQVSLTCLVKGFYPSDIAVEWESNGQPENNYKTTPPVLDSDGSFFLYSKLTVDKSRWQQGNVFSCSVMHEALHYHYTQKSLSLSP light: not shown
4 | 47 | IgG1-F1012 (antibody, EU numbering; copies: 2 + 2) heavy: QVQLQESGPGLVKPSETLSLTCAVSGHSISHDHAWSWVRQPPGEGLEWIGFISYSGITNYNPSLQGRVTISRDNSKNTLYLQMNSLRAEDTAVYYCARSLARTTAMDYWGEGTLVTVSSASTKGPSVFPLAPSSKSTSGGTAALGCLVKDYFPEPVTVSWNSGALTSGVHTFPAVLQSSGLYSLSSVVTVPSSSLGTQTYICNVNHKPSNTKVDKKVEPKSCDKTHTCPPCPAPELRGGPKVFLFPPKPKDVLYISRTPEVTCVVVDVSHEDPEVKFNWYVDGVEVHNAKTKPREEQYNSTYRVVSVLTPLHQDWLNGKEYKCKVSNKALPAPIEKTISKAKGQPREPQVYTLPPSRDELTKNQVSLTCLVKGFYPSDIAVEWESNGQPENNYKTTPPVLDSDGSFFLYSKLTVDKSRWQQGNVFSCSVMHEALHYHYTQKSLSLSP light: not shown
5 | 3.8 | IgG1-F1016 (antibody, EU numbering; copies: 2 + 2) heavy: QVQLQESGPGLVKPSETLSLTCAVSGHSISHDHAWSWVRQPPGEGLEWIGFISYSGITNYNPSLQGRVTISRDNSKNTLYLQMNSLRAEDTAVYYCARSLARTTAMDYWGEGTLVTVSSASTKGPSVFPLAPSSKSTSGGTAALGCLVKDYFPEPVTVSWNSGALTSGVHTFPAVLQSSGLYSLSSVVTVPSSSLGTQTYICNVNHKPSNTKVDKKVEPKSCDKTHTCPPCPAPELLGGPSVFLFPPKPKDVLYISRTPEVTCVVVDVSHEDPEVKFNWYVDGVEVHEAKTKPREEQYNSTYRVVSVLQPLHADWLNGKEYKCKVSNKALPAPIEKTISKAKGQPREPQVYTLPPSRDELTKNQVSLTCLVKGFYPSDIAVEWESNGQPENNYKTTPPVLDSDGSFFLYSKLTVDKSRWQQGNVFSCSVMHEALHYHVTQKSLSLSP light: not shown
6 | 3.2 | IgG1-F1018 (antibody, EU numbering; copies: 2 + 2) heavy: QVQLQESGPGLVKPSETLSLTCAVSGHSISHDHAWSWVRQPPGEGLEWIGFISYSGITNYNPSLQGRVTISRDNSKNTLYLQMNSLRAEDTAVYYCARSLARTTAMDYWGEGTLVTVSSASTKGPSVFPLAPSSKSTSGGTAALGCLVKDYFPEPVTVSWNSGALTSGVHTFPAVLQSSGLYSLSSVVTVPSSSLGTQTYICNVNHKPSNTKVDKKVEPKSCDKTHTCPPCPAPELRGGPKVFLFPPKPKDTLYISRTPEVTCVVVDVSHEDPEVKFNWYVDGVEVHEAKTKPREEQYNSTYRVVSVLQPLHADWLNGKEYKCKVSNKALPAPIEKTISKAKGQPREPQVYTLPPSRDELTKNQVSLTCLVKGFYPSDIAVEWESNGQPENNYKTTPPVLDSDGSFFLYSKLTVDKSRWQQGNVFSCSVMHEALHYHVTQKSLSLSP light: not shown

The remaining lines, values behind:

Row | Binder | Kd [nM]
7 | IgG1-F997 (antibody, EU numbering; copies: 2 + 2) heavy: QVQLQESGPGLVKPSETLSLTCAVSGHSISHDHAWSWVRQPPGEGLEWIGFISYSGITNYNPSLQGRVTISRDNSKNTLYLQMNSLRAEDTAVYYCARSLARTTAMDYWGEGTLVTVSSASTKGPSVFPLAPSSKSTSGGTAALGCLVKDYFPEPVTVSWNSGALTSGVHTFPAVLQSSGLYSLSSVVTVPSSSLGTQTYICNVNHKPSNTKVDKKVEPKSCDKTHTCPPCPAPELLGGPSVFLFPPKPIDVLYISRTPEVTCVVVDVSHEDPEVKFNWYVDGVEVHNAKTKPREEQYNSTYRVVSVLTVLHQDWLNGKEYKCKVSNKALPAPIEKTISKAKGQPREPQVYTLPPSRDELTKNQVSLTCLVKGFYPSDIAVEWESNGQPENNYKTTPPVLDSDGSFFLYSKLTVDKSRWQQGNVFSCSVMHEALHYHVTQKSLSLSP light: not shown | 380
8 | IgG1-F1008 (antibody, EU numbering; copies: 2 + 2) heavy: QVQLQESGPGLVKPSETLSLTCAVSGHSISHDHAWSWVRQPPGEGLEWIGFISYSGITNYNPSLQGRVTISRDNSKNTLYLQMNSLRAEDTAVYYCARSLARTTAMDYWGEGTLVTVSSASTKGPSVFPLAPSSKSTSGGTAALGCLVKDYFPEPVTVSWNSGALTSGVHTFPAVLQSSGLYSLSSVVTVPSSSLGTQTYICNVNHKPSNTKVDKKVEPKSCDKTHTCPPCPAPELRGGPKVFLFPPKPKDVLYISRTPEVTCVVVDVSHEDPEVKFNWYVDGVEVHNAKTKPREEQYNSTYRVVSVLTVLHQDWLNGKEYKCKVSNKALPAPIEKTISKAKGQPREPQVYTLPPSRDELTKNQVSLTCLVKGFYPSDIAVEWESNGQPENNYKTTPPVLDSDGSFFLYSKLTVDKSRWQQGNVFSCSVMHEALHYHVTQKSLSLSP light: not shown | 170
9 | IgG1-F999 (antibody, EU numbering; copies: 2 + 2) heavy: QVQLQESGPGLVKPSETLSLTCAVSGHSISHDHAWSWVRQPPGEGLEWIGFISYSGITNYNPSLQGRVTISRDNSKNTLYLQMNSLRAEDTAVYYCARSLARTTAMDYWGEGTLVTVSSASTKGPSVFPLAPSSKSTSGGTAALGCLVKDYFPEPVTVSWNSGALTSGVHTFPAVLQSSGLYSLSSVVTVPSSSLGTQTYICNVNHKPSNTKVDKKVEPKSCDKTHTCPPCPAPELLGGPSVFLFPPKPKDVLYISRTPHVTCVVVDVSHEDPEVKFNWYVDGVEVHNAKTKPREEQYNSTYRVVSVLTVLHQDWLNGKEYKCKVSNKALPAPIEKTISKAKGQPREPQVYTLPPSRDELTKNQVSLTCLVKGFYPSDIAVEWESNGQPENNYKTTPPVLDSDGSFFLYSKLTVDKSRWQQGNVFSCSVMHEALHYHVTQKSLSLSP light: not shown | 210
10 | IgG1-F1011 (antibody, EU numbering; copies: 2 + 2) heavy: QVQLQESGPGLVKPSETLSLTCAVSGHSISHDHAWSWVRQPPGEGLEWIGFISYSGITNYNPSLQGRVTISRDNSKNTLYLQMNSLRAEDTAVYYCARSLARTTAMDYWGEGTLVTVSSASTKGPSVFPLAPSSKSTSGGTAALGCLVKDYFPEPVTVSWNSGALTSGVHTFPAVLQSSGLYSLSSVVTVPSSSLGTQTYICNVNHKPSNTKVDKKVEPKSCDKTHTCPPCPAPELLGGPSVFLFPPKPKDVLYISRTPEVTCVVVDVSHEDPEVKFNWYVDGVEVHNAKTKPREEQYNSTYRVVSVLTPLHQDWLNGKEYKCKVSNKALPAPIEKTISKAKGQPREPQVYTLPPSRDELTKNQVSLTCLVKGFYPSDIAVEWESNGQPENNYKTTPPVLDSDGSFFLYSKLTVDKSRWQQGNVFSCSVMHEALHYHYTQKSLSLSP light: not shown | 45
11 | IgG1-F1009 (antibody, copies: 2 + 2) heavy: QVQLQESGPGLVKPSETLSLTCAVSGHSISHDHAWSWVRQPPGEGLEWIGFISYSGITNYNPSLQGRVTISRDNSKNTLYLQMNSLRAEDTAVYYCARSLARTTAMDYWGEGTLVTVSSASTKGPSVFPLAPSSKSTSGGTAALGCLVKDYFPEPVTVSWNSGALTSGVHTFPAVLQSSGLYSLSSVVTVPSSSLGTQTYICNVNHKPSNTKVDKKVEPKSCDKTHTCPPCPAPELRGGPKVFLFPPKPKDVLYISRTPEVTCVVVDVSHEDPEVKFNWYVDGVEVHNAKTKPREEQYNSTYRVVSVLQPLHADWLNGKEYKCKVSNKALPAPIEKTISKAKGQPREPQVYTLPPSRDELTKNQVSLTCLVKGFYPSDIAVEWESNGQPENNYKTTPPVLDSDGSFFLYSKLTVDKSRWQQGNVFSCSVMHEALHYHVTQKSLSLSP light: not shown | 12
12 | IgG1-F998 (antibody, EU numbering; copies: 2 + 2) heavy: QVQLQESGPGLVKPSETLSLTCAVSGHSISHDHAWSWVRQPPGEGLEWIGFISYSGITNYNPSLQGRVTISRDNSKNTLYLQMNSLRAEDTAVYYCARSLARTTAMDYWGEGTLVTVSSASTKGPSVFPLAPSSKSTSGGTAALGCLVKDYFPEPVTVSWNSGALTSGVHTFPAVLQSSGLYSLSSVVTVPSSSLGTQTYICNVNHKPSNTKVDKKVEPKSCDKTHTCPPCPAPELLGGPSVFLFPPKPYDVLYISRTPEVTCVVVDVSHEDPEVKFNWYVDGVEVHNAKTKPREEQYNSTYRVVSVLTVLHQDWLNGKEYKCKVSNKALPAPIEKTISKAKGQPREPQVYTLPPSRDELTKNQVSLTCLVKGFYPSDIAVEWESNGQPENNYKTTPPVLDSDGSFFLYSKLTVDKSRWQQGNVFSCSVMHEALHYHVTQKSLSLSP light: not shown | 850
13 | IgG1-F1010 (antibody, EU numbering; copies: 2 + 2) heavy: QVQLQESGPGLVKPSETLSLTCAVSGHSISHDHAWSWVRQPPGEGLEWIGFISYSGITNYNPSLQGRVTISRDNSKNTLYLQMNSLRAEDTAVYYCARSLARTTAMDYWGEGTLVTVSSASTKGPSVFPLAPSSKSTSGGTAALGCLVKDYFPEPVTVSWNSGALTSGVHTFPAVLQSSGLYSLSSVVTVPSSSLGTQTYICNVNHKPSNTKVDKKVEPKSCDKTHTCPPCPAPELRGGPKVFLFPPKPKDTLYISRTPEVTCVVVDVSHEDPEVKFNWYVDGVEVHNAKTKPREEQYNSTYRVVSVLAVLHHDWLNGKEYKCKVSNKALPAPIEKTISKAKGQPREPQVYTLPPSRDELTKNQVSLTCLVKGFYPSDIAVEWESNGQPENNYKTTPPVLDSDGSFFLYSKLTVDKSRWQQGNVFSCSVMHEALHYHYTQKSLSLSP light: not shown | 190
